Measured values as given in patent publication US20160185837A1 (AstraZeneca / MedImmune, published 2016).
Positions count from the first letter of the chain named.

B1: IP088 (Fc fusion)
chain: YSEGTFTSDYSKLLEEEAVRLFIEWLVKGPAAAGGSGSTASSGSGSATGGGGAATHTCPPCPAPEF
B2: IP384 (Fc fusion)
chain: YSEGTFTSDYSKLLEEEAVRLFIEWLLKGGGGGGSGGGGSGGGGSGGGGSATHTCPPC
B3: IP390 (Fc fusion)
chain: YSEGTFTSDYSKLLEEEAVRLFIEWLVKGPGGGGGSGGGGSGGGGSGGGGSGGGGSACPPC
B4: IP400 (Fc fusion)
chain: B2 chain with F6H, Y10L, K28A
B5: IP403 (Fc fusion)
chain: YSEGTHTSDLRILLEEEAVRLFIEKLLAGGGSGGGGSGGGGSGGGGSGGGGSGGGGSGGGGSGGGGSACPPC
B6: IP298 (Fc fusion)
chain: YSEGTFTSDVSSYLERQAIDEFIAWLLKGGAAAGGSGSTASSGSGSATGGGGAATHTCPPC
B7: IP304 (Fc fusion)
chain: B6 chain with D20E
B8: IP317 (Fc fusion)
chain: B6 chain with R16K

Biological target: cynomolgus monkey glucagon receptor (cynomolgus monkey)
Experiment: cell-based or functional assay

Binder | cAMP EC50, 4.2% cyno serum albumin [nM]
B1 | > 1000

Biological target: cynomolgus monkey GLP-1 receptor (cynomolgus monkey, UniProt F8V479 24-463)
Experiment: cell-based or functional assay

Binder | cAMP EC50, 4.2% cyno serum albumin [nM]
B1 | 0.19

Biological target: T1, human GLP-1 receptor (human, UniProt P43220 24-463)
Experiment: cell-based or functional assay

Binder | cAMP EC50 [nM]
B1 | 0.076
B2 | 0.091
B3 | 0.13
B4 | 0.29
B5 | 960
B6 | 0.18
B7 | 0.16
B8 | 0.13

Biological target: T2, rat GIP receptor (rat, UniProt P43219 19-455)
T2 sequence (looked up): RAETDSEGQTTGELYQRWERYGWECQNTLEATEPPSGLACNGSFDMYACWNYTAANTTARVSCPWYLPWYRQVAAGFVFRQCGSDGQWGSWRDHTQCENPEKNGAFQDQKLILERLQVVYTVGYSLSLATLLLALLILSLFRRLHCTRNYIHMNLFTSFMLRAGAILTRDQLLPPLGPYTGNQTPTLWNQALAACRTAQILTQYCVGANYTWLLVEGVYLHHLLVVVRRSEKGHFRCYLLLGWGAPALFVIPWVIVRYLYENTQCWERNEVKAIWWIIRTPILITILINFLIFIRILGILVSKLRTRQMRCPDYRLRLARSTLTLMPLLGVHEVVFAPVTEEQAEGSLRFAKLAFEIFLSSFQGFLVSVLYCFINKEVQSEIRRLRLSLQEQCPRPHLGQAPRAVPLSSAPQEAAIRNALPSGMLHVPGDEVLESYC
Experiment: cell-based or functional assay

Binder | cAMP EC50 [nM]
B1 | 0.1
B2 | 0.043
B3 | 0.23
B4 | 0.087
B5 | 0.02
B6 | 7.5
B7 | 4.6
B8 | 5.3

Biological target: T3, mouse GLP-1 receptor (mouse, UniProt O35659 22-463)
T3 sequence (looked up): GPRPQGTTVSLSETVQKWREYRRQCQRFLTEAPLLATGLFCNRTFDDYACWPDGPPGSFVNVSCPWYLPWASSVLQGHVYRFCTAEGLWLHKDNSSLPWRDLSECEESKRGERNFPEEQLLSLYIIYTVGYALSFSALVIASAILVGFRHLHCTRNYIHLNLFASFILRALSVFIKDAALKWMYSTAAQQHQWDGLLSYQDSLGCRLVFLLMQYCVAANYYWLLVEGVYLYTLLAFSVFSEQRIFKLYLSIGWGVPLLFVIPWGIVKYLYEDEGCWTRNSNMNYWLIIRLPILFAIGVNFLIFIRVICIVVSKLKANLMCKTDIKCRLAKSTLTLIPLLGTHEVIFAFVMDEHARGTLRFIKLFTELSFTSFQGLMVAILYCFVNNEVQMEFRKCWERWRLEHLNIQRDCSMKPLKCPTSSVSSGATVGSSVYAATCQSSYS
Experiment: cell-based or functional assay

Binder | cAMP EC50 [nM]
B1 | 0.31
B2 | 0.99
B3 | 2
B4 | 31
B5 | > 1740
B6 | 0.36
B7 | 0.69
B8 | 0.33

Biological target: T4, human GIP receptor (human, UniProt P48546 22-466)
T4 sequence (looked up): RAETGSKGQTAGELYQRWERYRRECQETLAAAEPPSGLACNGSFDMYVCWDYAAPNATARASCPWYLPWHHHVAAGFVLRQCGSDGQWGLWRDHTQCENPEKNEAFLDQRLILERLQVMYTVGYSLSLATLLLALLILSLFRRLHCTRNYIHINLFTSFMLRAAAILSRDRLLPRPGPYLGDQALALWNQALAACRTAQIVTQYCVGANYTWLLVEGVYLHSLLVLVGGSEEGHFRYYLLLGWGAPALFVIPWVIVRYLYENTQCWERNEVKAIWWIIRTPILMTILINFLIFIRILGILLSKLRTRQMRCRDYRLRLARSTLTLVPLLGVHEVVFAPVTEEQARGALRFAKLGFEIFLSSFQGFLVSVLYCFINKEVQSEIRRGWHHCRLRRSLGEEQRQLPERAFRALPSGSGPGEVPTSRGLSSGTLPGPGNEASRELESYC
Experiment: cell-based or functional assay

Binder | cAMP EC50 [nM]
B1 | 0.0078
B2 | 0.0062
B3 | 0.0088
B4 | 0.002
B5 | 16
B6 | 0.14
B7 | 0.1
B8 | 0.11

Biological target: human glucagon receptor (human, UniProt P47871 26-477)
Experiment: cell-based or functional assay

Binder | cAMP EC50 [nM]
B1 | 460
B2 | 26
B3 | > 218
B4 | 1300
B5 | 960
B6 | > 13100
B7 | 2600
B8 | > 5550

Biological target: T5, mouse GIP receptor (mouse, UniProt Q0P543 19-460)
T5 sequence (looked up): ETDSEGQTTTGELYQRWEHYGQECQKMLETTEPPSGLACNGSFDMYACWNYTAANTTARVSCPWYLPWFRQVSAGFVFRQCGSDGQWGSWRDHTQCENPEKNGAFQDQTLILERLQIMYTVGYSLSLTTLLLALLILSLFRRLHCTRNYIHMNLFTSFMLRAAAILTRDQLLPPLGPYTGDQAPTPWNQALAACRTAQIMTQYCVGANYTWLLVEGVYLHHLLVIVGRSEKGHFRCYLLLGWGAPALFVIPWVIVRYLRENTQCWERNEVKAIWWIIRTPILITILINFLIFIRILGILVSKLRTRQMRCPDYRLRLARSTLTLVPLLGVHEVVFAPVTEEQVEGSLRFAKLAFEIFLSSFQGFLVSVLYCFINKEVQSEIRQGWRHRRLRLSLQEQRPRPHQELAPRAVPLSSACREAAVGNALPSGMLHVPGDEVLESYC
Experiment: cell-based or functional assay

Binder | cAMP EC50 [nM]
B1 | 86
B2 | 4.1
B3 | 3.6
B4 | 380
B5 | 21
B6 | 80
B7 | 16
B8 | 86

Biological target: T6, rat GLP-1 receptor (rat, UniProt P32301 22-463)
T6 sequence (looked up): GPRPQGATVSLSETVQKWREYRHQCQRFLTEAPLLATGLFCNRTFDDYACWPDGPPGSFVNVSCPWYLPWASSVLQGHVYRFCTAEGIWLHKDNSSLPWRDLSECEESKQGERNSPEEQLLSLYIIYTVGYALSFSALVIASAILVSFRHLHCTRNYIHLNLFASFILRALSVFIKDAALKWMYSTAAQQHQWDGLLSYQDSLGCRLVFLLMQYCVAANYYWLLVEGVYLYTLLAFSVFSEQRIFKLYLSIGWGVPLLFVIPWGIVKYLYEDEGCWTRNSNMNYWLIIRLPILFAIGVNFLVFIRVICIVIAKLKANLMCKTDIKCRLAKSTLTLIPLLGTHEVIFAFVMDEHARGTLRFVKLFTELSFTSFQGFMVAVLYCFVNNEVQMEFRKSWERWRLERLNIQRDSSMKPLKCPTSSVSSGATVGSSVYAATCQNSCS
Experiment: cell-based or functional assay

Binder | cAMP EC50 [nM]
B1 | 0.033
B2 | 0.024
B3 | 0.024
B4 | 0.19
B5 | 73
B6 | 0.015
B7 | 0.024
B8 | 0.012

Biological target: T1, human GLP-1 receptor
Experiment: cell-based or functional assay
Remark: another data set of the same source

Binder | cAMP EC50 [nM]
B1 | 0.222

Biological target: T3, mouse GLP-1 receptor
Experiment: cell-based or functional assay
Remark: another data set of the same source

Binder | cAMP EC50 [nM]
B1 | 0.42

Biological target: T4, human GIP receptor
Experiment: cell-based or functional assay
Remark: another data set of the same source

Binder | cAMP EC50 [nM]
B1 | 0.016

Biological target: T5, mouse GIP receptor
Experiment: cell-based or functional assay
Remark: another data set of the same source

Binder | cAMP EC50 [nM]
B1 | 137

Biological target: T6, rat GLP-1 receptor
Experiment: cell-based or functional assay
Remark: another data set of the same source

Binder | cAMP EC50 [nM]
B1 | 0.038
